Source: patent US20250340631A1 (HARBOUR BIOMED SHANGHAI, published 2025)

T1: human CLDN1 (human, UniProt O95832 1-211)
T1 construct: whole, on cells; also called hCLDN1
T1 sequence (looked up): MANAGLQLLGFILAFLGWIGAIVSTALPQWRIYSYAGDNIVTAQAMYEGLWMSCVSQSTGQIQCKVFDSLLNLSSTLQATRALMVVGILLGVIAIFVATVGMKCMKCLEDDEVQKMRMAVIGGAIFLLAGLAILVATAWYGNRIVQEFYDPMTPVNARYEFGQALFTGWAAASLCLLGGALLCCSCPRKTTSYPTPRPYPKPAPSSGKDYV

T2: Human CD32b (human, UniProt P31994 46-217, limits assumed)
T2 sequence (looked up): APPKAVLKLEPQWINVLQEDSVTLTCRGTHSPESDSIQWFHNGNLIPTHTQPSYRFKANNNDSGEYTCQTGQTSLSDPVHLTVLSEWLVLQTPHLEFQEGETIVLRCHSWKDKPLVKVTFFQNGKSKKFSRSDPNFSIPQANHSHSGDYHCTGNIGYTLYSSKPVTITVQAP

T3: Human CD32a(H) (human, UniProt P12318 36-218, limits assumed)
T3 sequence (looked up): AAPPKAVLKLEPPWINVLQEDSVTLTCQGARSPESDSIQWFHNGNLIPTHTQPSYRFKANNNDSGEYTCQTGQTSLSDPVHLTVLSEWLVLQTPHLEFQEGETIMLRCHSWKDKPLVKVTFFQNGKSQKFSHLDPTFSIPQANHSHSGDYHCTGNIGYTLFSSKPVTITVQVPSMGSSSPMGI

T4: human CLDN2 (human, UniProt P57739 1-230)
T4 construct: whole, on cells; also called hCLDN2
T4 sequence (looked up): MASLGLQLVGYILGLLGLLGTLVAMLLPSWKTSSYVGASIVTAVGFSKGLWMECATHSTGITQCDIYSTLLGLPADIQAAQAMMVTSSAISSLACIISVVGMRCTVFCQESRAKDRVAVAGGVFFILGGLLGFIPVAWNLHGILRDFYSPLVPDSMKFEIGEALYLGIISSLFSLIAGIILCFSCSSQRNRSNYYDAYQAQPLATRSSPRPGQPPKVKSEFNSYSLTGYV

T5: human CLDN9 (human, UniProt O95484 1-217)
T5 construct: whole, on cells; also called hCLDN9
T5 sequence (looked up): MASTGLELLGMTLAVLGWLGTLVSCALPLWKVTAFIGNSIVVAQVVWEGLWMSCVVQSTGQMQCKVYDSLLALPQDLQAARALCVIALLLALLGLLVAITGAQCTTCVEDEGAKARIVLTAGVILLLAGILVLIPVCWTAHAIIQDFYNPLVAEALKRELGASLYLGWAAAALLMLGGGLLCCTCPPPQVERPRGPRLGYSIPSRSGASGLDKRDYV

T6: human CLDN4 (human, UniProt O14493 1-209)
T6 construct: whole, on cells; also called hCLDN4
T6 sequence (looked up): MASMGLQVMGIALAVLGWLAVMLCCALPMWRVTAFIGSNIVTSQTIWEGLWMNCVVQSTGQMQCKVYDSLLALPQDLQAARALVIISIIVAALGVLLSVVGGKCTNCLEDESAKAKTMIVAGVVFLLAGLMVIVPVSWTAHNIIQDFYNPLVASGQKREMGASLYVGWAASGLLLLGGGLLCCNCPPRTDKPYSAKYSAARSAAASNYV


What was measured:
[1] = target: T1, human CLDN1; assay: FACS on HEK293 cells transiently expressing human CLDN1
Experimental: (§1) Antibodies were assayed for binding affinity to human CLDN18.2 paralogous proteins by FACS (ACEA NovoCyte). CLDN1, CLDN2, CLDN3, CLDN4, CLDN6 and CLDN9 genes of the human CLDN18.2 paralogous family were transiently transfected into HEK293 cells. […] The cell density was adjusted to 10⁶ cells/mL, and 50 μL of the cell suspension was added to each well of a 96-well plate. An antibody was diluted to 60 nM with FACS buffer, and 50 μL of the antibody dilution was added to each well of the 96-well plate. After 2 h of incubation at 4° C., the plate was washed twice with FACS buffer. Then, an FACS buffer containing a secondary antibody was added. After 1 h of incubation at 4° C., the plate was washed twice with FACS buffer. The cells were resuspended in fixative solution, and run FACS.

[2] = target: T7, Human CD64 (human, UniProt P12314 16-288, limits assumed); assay: BLI (Octet), antibody on FAB2G sensor
T7 construct: bought recombinant protein
T7 sequence (P12314 16-288 limits assumed): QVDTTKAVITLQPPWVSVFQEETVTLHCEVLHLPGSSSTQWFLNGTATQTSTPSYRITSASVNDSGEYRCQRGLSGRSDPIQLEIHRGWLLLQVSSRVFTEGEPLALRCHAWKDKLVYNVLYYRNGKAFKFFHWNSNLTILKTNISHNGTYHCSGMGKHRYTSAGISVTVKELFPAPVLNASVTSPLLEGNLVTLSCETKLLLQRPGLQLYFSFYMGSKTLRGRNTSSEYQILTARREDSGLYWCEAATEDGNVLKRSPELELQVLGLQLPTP
Experimental: (§2) The binding kinetics between proteins and antibodies was analyzed by the Biolayer Interferometry (BLI) technique using an Octet Red 96e (Fortebio) system. The rotation speed was set at 1000 rpm for the system. […] After equilibrated in the buffer for 120 s, the FAB2G sensor was allowed to bind to 2-fold serially diluted human Fc receptor protein. Finally, the FAB2G sensor was immersed in a 10 mM glycine-hydrochloric acid solution at pH 1.5 for regeneration to elute the proteins bound to the sensor. The affinity assays of antibodies for FcRn were performed under the conditions of both pH 6.0 buffer and pH 7.4 buffer. […] For the interactions of fast binding and fast dissociation, the “steady state” method was selected to fit the data to obtain KD(M) values.

[3] = target: Human CD16a(F) (human, UniProt P08637 17-208); assay: BLI (Octet), antibody on FAB2G sensor
Sequence of Human CD16a(F) (P08637 17-208 limits assumed): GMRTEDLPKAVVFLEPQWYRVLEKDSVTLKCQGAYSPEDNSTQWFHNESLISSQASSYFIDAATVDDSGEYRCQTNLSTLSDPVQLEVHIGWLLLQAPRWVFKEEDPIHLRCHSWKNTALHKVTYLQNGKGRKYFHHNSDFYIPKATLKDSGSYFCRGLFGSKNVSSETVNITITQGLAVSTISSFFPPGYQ
Experimental: as §2

[4] = target: T2, Human CD32b; assay: BLI (Octet), antibody on FAB2G sensor
Experimental: as §2

[5] = target: Human CD16a(V) (human, UniProt P08637 17-208); assay: BLI (Octet), antibody on FAB2G sensor
Sequence of Human CD16a(V) (P08637 17-208 F176V limits assumed): as the sequence (P08637 17-208 limits assumed) above, with F160V counted along it
Experimental: as §2

[6] = target: T3, Human CD32a(H); assay: BLI (Octet), antibody on FAB2G sensor
Experimental: as §2

[7] = target: T8, Biotinylated cynomolgus CD3E&D (cynomolgus, UniProt Q95LI5 22-117; Q95LI8 22-105, biotin label); assay: BLI (Octet), biotinylated CD3 on SA sensor, 1:1 global fit;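 further: antibodies applied as analyte in 2-fold serial dilutions, with a 180 s association phase followed by a 300 s dissociation phase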
T8 construct: also called CDD-C82W6
T8 sequence (Q95LI8 22-105, one chain of several): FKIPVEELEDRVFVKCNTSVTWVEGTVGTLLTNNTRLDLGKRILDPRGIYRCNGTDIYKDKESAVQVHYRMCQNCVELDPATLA
Experimental: (§3) The binding kinetics between proteins and antibodies was analyzed by the Biolayer Interferometry (BLI) technique using an Octet Red 96e (Fortebio) system. Human CD3E (Acro, CDE-H5223), cynomolgus CD3E (Acro, CDE-C5226) and murine CD3E (Acro, CDE-M5256) were mixed with biotin (Thermo Scientific, A39257) in a molar ratio of 1:3. The mixture was incubated at 4° C. overnight, and then excess biotin was removed to obtain biotinylated CD3E. The rotation speed was set at 1000 rpm for the system. […] After being equilibrated in the buffer for 120 s, the SA sensor with captured CD3 was allowed to bind to 2-fold serially diluted antibodies. […] Finally, the SA sensor was immersed in a 10 mM glycine-hydrochloric acid solution at pH 1.5 for regeneration to elute the antibodies bound to the sensor. […] For the interactions of fast binding and fast dissociation, the “steady state” method was selected to fit the data to obtain KD(M) values.

[8] = target: T9, Biotinylated human CD3E&D (human, UniProt P07766 23-126; P04234 22-105, biotin label); assay: as above
T9 construct: also called CDD-H82W6
T9 sequence (P07766 23-126, chain 1 of 2): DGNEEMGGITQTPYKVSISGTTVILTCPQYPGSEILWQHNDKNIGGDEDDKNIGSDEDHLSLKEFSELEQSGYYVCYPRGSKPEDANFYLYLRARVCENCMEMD
T9 sequence (P04234 22-105, chain 2 of 2): as the sequence (Q95LI8 22-105, one chain of several) above, with V5I, K15N, V20I, T32S, N33D, N34I, A64T, N74S, L83V counted along it
Experimental: as §3

[9] = target: T10, human CLDN18.2 (human); assay: FACS on HEK293/hCLDN18.2 cells
T10 construct: the HEK293 line was made with a GenScript plasmid; also called hCLDN18.2
Experimental: (§4) Antibodies were assayed for binding affinity by FACS. Test cells include HEK293/hCLDN18.2, HEK293/hCLDN18.1, NUGC4_D8 and Jurkat cells. […] The cell density was adjusted to 10⁶ cells/mL, and 50 μL of the cell suspension was added to each well of a 96-well plate. Antibodies were diluted to different concentrations with FACS buffer, and 50 μL of the antibody dilution was added to each well of the 96-well plate. After 2 h of incubation at 4° C., the plate was washed twice with FACS buffer. […] After 1 h of incubation at 4° C., the plate was washed twice with FACS buffer. The cells were resuspended in fixative solution, and then the fluorescence of the cells was monitored using an FACS instrument (ACEA NovoCyte).

[10] = target: T10, human CLDN18.2; assay: competition FACS on HEK293/hCLDN18.2 cells; competitor 200 nM biotinylated PR004549
Experimental: (§5) This example is to study the binding of anti-human CLDN18.2 bispecific antibodies to the epitope region of a human CLDN18.2 antigen. Competitive binding experiments were performed at the cellular level using human CLDN18.2-overexpressing HEK293/hCLDN18.2 cells. […] The mixture was well mixed and incubated at 4° C. for 30 min. 25 μL of the corresponding serially diluted non-biotinylated anti-human CLDN18.2 antibody was added. The mixture was well mixed and incubated at 4° C. for 1 h. The cells in each well were washed twice with 200 μL of pre-cooled FACS buffer (2% BSA in DPBS) and centrifuged at 500 g at 4° C. for 5 min, and then the supernatant was discarded. A fluorescent secondary antibody (Jackson ImmunoResearch, 016-540-084, 1:500) was added. The mixture was incubated at 4° C. in the absence of light for 1 h. The cells in each well were washed twice with 200 μL of pre-cooled FACS buffer (2% BSA in DPBS) and centrifuged at 500 g at 4° C. for 5 min, and then the supernatant was discarded. Finally, the cells in each well were resuspended in 200 μL of pre-cooled FACS buffer, and the fluorescence signal values were read using a ACEA_NovoCyte.

[11] = target: T10, human CLDN18.2; assay: FACS on NUGC4_D8 cells
Experimental: as §4

[12] = target: T4, human CLDN2; assay: FACS on HEK293 cells transiently expressing human CLDN2
Experimental: as §1

[13] = target: Human FcRn (human, UniProt P55899 24-297; P61769 21-119); assay: BLI (Octet), antibody on FAB2G sensor, pH 6.0, 1:1 global fit; pH 6.0; 400-25 nM
Experimental: as §2

[14] = target: T5, human CLDN9; assay: FACS on HEK293 cells transiently expressing human CLDN9
Experimental: as §1

[15] = target: CLDN18.2 of SNU620 cells (methionine to leucine at amino acid 149) (human, UniProt P56856-2 1-261); assay: cell-based or functional assay
Sequence of CLDN18.2 of SNU620 cells (methionine to leucine at amino acid 149) (P56856 other isoform, or with tags, fused parts or gaps limits assumed): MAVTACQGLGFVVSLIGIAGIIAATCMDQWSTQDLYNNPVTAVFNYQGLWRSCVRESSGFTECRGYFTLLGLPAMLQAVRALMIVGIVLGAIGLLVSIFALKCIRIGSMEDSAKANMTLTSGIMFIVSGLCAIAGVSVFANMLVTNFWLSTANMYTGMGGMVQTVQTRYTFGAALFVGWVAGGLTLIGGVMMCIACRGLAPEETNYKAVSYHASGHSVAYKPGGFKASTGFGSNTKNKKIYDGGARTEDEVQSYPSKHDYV

[16] = target: T10, human CLDN18.2; assay: cell-based or functional assay
[17] = target: T6, human CLDN4; assay: FACS on HEK293 cells transiently expressing human CLDN4
Experimental: as §1

[18] = target: T10, human CLDN18.2; assay: competition FACS on HEK293/hCLDN18.2 cells; competitor 10 nM biotinylated PR000400
Experimental: as §5

| binding result [1] | binding result [2] | binding result [3] | binding result [4] | binding result [5] | binding result [6] | Kd [7] [nM] | koff [7] [s⁻¹] | kon [7] [M⁻¹ s⁻¹] | Kd [8] [nM] | koff [8] [s⁻¹] | kon [8] [M⁻¹ s⁻¹] | EC50 [9] [nM] | IC50 [10] [nM] | Maximum inhibition rate (%) [10] [%] | EC50 [11] [nM] | binding result [12] | Kd [13] [nM] | koff [13] [s⁻¹] | kon [13] [M⁻¹ s⁻¹] | further results | Binder |
| --- | --- | --- | --- | --- | --- | --- | --- | --- | --- | --- | --- | --- | --- | --- | --- | --- | --- | --- | --- | --- | --- |
| no binding | no binding (tested: 800-50 nM) | no binding (tested: 10000-625 nM) | no binding (tested: 10000-625 nM) | no binding (tested: 6000-375 nM) | no binding (tested: 10000-625 nM) | 113 | 0.00965 | 85700 | 144 | 0.0122 | 84700 | 11.5 | 70.8 | 48.1 | 70.1 | no binding | 200 | 0.0609 | 305000 | binding result [14]: no binding; TDCC, Titer EC50 (pM), SNU620 [15]: 113 pM; TDCC, Titer EC50 (pM), NUGC4_D8 [16]: 185 pM; binding result [17]: no binding; IC50 [18]: 87.7 nM; Maximum inhibition rate (%) [18]: 97.7% | PR006292 (bispecific antibody, human IgG1, lambda, structure 1; CD3 Fab from PR003886, CLDN18.2 VH from PR007245; IgG1 knob/hole, AAA (L234A, L235A, G237A)) EVQLVESGGGLVQPGGSLRLSCAASGFTFSSYWMHWVRQVPGKGLVWVSRISSDASRTIYADSVKGRFTISRDNAKNTLYLQMNSLRAEDTAVYYCARGEDHDILTGYPIRGQGTTVTVSSGGGGSGGGGSGGGGSEVQLVESGGGLVQPGGSLRLSCAASGFTFSSYWMHWVRQVPGKGLVWVSRISSDASRTIYADSVKGRFTISRDNAKNTLYLQMNSLRAEDTAVYYCARGEDHDILTGYPIRGQGTTVTVSSASEPKSSDKTHTCPPCPAPEAAGAPSVFLFPPKPKDTLMISRTPEVTCVVVDVSHEDPEVKFNWYVDGVEVHNAKTKPREEQYNSTYRVVSVLTVLHQDWLNGKEYKCKVSNKALPAPIEKTISKAKGQPREPQVCTLPPSREEMTKNQVSLSCAVKGFYPSDIAVEWESNGQPENNYKTTPPVLDSDGSFFLVSKLTVDKSRWQQGNVFSCSVMHEALHNHYTQKSLSLSPGK heavy: EVQLVESGGGLVQPGGSLKLSCAASGFTFSTYAMNWVRQASGKGLEWVGRIRSKYNNYATYYADSVKDRFTISRDDSKNTAYLQMNSLKTEDTAVYYCTRHGNFGNSYVSWFAYWGQGTLVTVSSASTKGPSVFPLAPSSKSTSGGTAALGCLVKDYFPEPVTVSWNSGALTSGVHTFPAVLQSSGLYSLSSVVTVPSSSLGTQTYICNVNHKPSNTKVDKKVEPKSCDKTHTCPPCPAPEAAGAPSVFLFPPKPKDTLMISRTPEVTCVVVDVSHEDPEVKFNWYVDGVEVHNAKTKPREEQYNSTYRVVSVLTVLHQDWLNGKEYKCKVSNKALPAPIEKTISKAKGQPREPQVYTLPPCREEMTKNQVSLWCLVKGFYPSDIAVEWESNGQPENNYKTTPPVLDSDGSFFLYSKLTVDKSRWQQGNVFSCSVMHEALHNHYTQKSLSLSPGK light: QAVVTQEPSLTVSPGGTVTLTCRSSTGAVTTSNYANWVQQKPGQAPRGLIGGTNKRAPWTPARFSGSLLGDKAALTLLGAQPEDEAEYFCALWYSNLWVFGGGTKLTVLGQPKAAPSVTLFPPSSEELQANKATLVCLISDFYPGAVTVAWKADSSPVKAGVETTTPSKQSNNKYAASSYLSLTPEQWKSHRSYSCQVTHEGSTVEKTVAPTECS |
| no binding | no binding (tested: 800-50 nM) | no binding (tested: 10000-625 nM) | no binding (tested: 10000-625 nM) | no binding (tested: 6000-375 nM) | no binding (tested: 10000-625 nM) | 152 | 0.00942 | 62200 | 132 | 0.0119 | 90200 | 14.4 | 56.7 | 48.5 | 51.4 | no binding | 210 | 0.0608 | 289000 | binding result [14]: no binding; TDCC, Titer EC50 (pM), SNU620 [15]: 57.1 pM; TDCC, Titer EC50 (pM), IM95 [16]: 938 pM; TDCC, Titer EC50 (pM), NUGC4_D8 [16]: 57.9 pM; binding result [17]: no binding; IC50 [18]: 103 nM; Maximum inhibition rate (%) [18]: 97.8% | PR006384 (bispecific antibody, human IgG1, lambda, structure 1; CD3 Fab from PR003886, CLDN18.2 VH from PR007246; AAA) EVQLVESGGGLVQPGGSLRLSCAASGFTFSSYWMHWVRQVPGKGLVWVSRISSTGSRTIYADSVKGRFTISRDNAKNTLYLQMNSLRAEDTAVYYCARGEDHDILTGYPIRGQGTTVTVSSGGGGSGGGGSGGGGSEVQLVESGGGLVQPGGSLRLSCAASGFTFSSYWMHWVRQVPGKGLVWVSRISSTGSRTIYADSVKGRFTISRDNAKNTLYLQMNSLRAEDTAVYYCARGEDHDILTGYPIRGQGTTVTVSSASEPKSSDKTHTCPPCPAPEAAGAPSVFLFPPKPKDTLMISRTPEVTCVVVDVSHEDPEVKFNWYVDGVEVHNAKTKPREEQYNSTYRVVSVLTVLHQDWLNGKEYKCKVSNKALPAPIEKTISKAKGQPREPQVCTLPPSREEMTKNQVSLSCAVKGFYPSDIAVEWESNGQPENNYKTTPPVLDSDGSFFLVSKLTVDKSRWQQGNVFSCSVMHEALHNHYTQKSLSLSPGK heavy: EVQLVESGGGLVQPGGSLKLSCAASGFTFSTYAMNWVRQASGKGLEWVGRIRSKYNNYATYYADSVKDRFTISRDDSKNTAYLQMNSLKTEDTAVYYCTRHGNFGNSYVSWFAYWGQGTLVTVSSASTKGPSVFPLAPSSKSTSGGTAALGCLVKDYFPEPVTVSWNSGALTSGVHTFPAVLQSSGLYSLSSVVTVPSSSLGTQTYICNVNHKPSNTKVDKKVEPKSCDKTHTCPPCPAPEAAGAPSVFLFPPKPKDTLMISRTPEVTCVVVDVSHEDPEVKFNWYVDGVEVHNAKTKPREEQYNSTYRVVSVLTVLHQDWLNGKEYKCKVSNKALPAPIEKTISKAKGQPREPQVYTLPPCREEMTKNQVSLWCLVKGFYPSDIAVEWESNGQPENNYKTTPPVLDSDGSFFLYSKLTVDKSRWQQGNVFSCSVMHEALHNHYTQKSLSLSPGK light: QAVVTQEPSLTVSPGGTVTLTCRSSTGAVTTSNYANWVQQKPGQAPRGLIGGTNKRAPWTPARFSGSLLGDKAALTLLGAQPEDEAEYFCALWYSNLWVFGGGTKLTVLGQPKAAPSVTLFPPSSEELQANKATLVCLISDFYPGAVTVAWKADSSPVKAGVETTTPSKQSNNKYAASSYLSLTPEQWKSHRSYSCQVTHEGSTVEKTVAPTECS |
